In the supplement of paper PMC9170038:

tested on: K4 kissing-loop RNA reporter; assay: apparent KD of K4 kissing-loop reporter; higher = weaker reporter binding; conditions: Eterna round: R107; input ligand: arginine 13.2 mM
Method: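 RNA-MaP round R107: designed RNA switches with theophylline, tryptophan, arginine or FMN aptamers are transcribed on-chip within common flanks. They are titrated with a labelled K4 kissing-loop RNA reporter in RNA-MaP buffer (100 mM Tris pH 7.5, 80 mM KCl, 4 mM MgCl2), without ligand or with the indicated ligand. Median apparent KD per design.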
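Note: bound reporter read as fluorescence of individual clusters on recovered sequencing chips by microscopy, with normalized cluster intensities fitted with a binding model.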

Sequence	apparent KD of K4 kissing-loop reporter
GGCAUCCAUGGACCUAGUGAUGUUAGGUACCGAGGACCGGUACGGCCGCCACUCGGCCAUGGAUGCCGCAAUCGGAAACGAUUGC	243 nM
GGUAGCAUGGCGGCCGCCACUUCAAGUGGAGUGAUGUUCCACGGCAUCGCGAAAGCGAUGCCUGGAAGGACCGGGCCAUGCUACC	739 nM
AUCCGGAGUGCGGCCGCCACUAUCGGAUAGAGUGAUGUUCUAUCCGGCCUUAAAGGCGCGAACGAUAGGACCGGGCACUCUAAAU [Quatinti]	124 nM
GCCGUACGCAUGGAUACCAGUCAAGAUCAGUGAUGUUGAUCUUUUAUAGAGCCUACAUUUGACCCUUGGCAGCCAUGCGUACGGC	320 nM
AACUGUCAAGGACAACAUUACUGAGGUGAUACCAGCAUCGAAAGAUGCCCUUGGCAGCGCCAACUUGCAGUGAUGUUGCAAGUAA [BrourdMod 1 - Jieux - Exclusion - Theophylline A]	141 nM
UCGCAAAAGUCGGCCGCCACUCCGGGCCCUAUAAAUGGGCGCAGUGAUGUUGCGGCUAGGCCUCUGAGGACCGGGACUUUGUAGC [Tixelequ]	119 nM
UGAUAGGACAGAAGGAGCGGAAGUGAUGUUUCCAAUGGAUAAAAGGUGUCAAAGACACCCUUCCAGGUAGGUCGCUGUCCUAUCU [ArgBX 17 #Palindromic #SwitchBubble #StaticStem]	160 nM
AAAUUUAAUAUAUUUAAUUAAUUAAGUGAUACCAGACAUUAAUAAGUCCCUUGGCAGCGCAAUGCAGUGAUGUUGCUUAUAAUAA [#18 K4 Theophylline A Same State]	82.9 nM
AAUAACUUGCAGUGAUGUUGCAAGAAAGCUCAGGAUAUCAGGAAACUGAGAAGGGAGCAUCCUGAGCAAACAUCACAACUUAGGA [[K1]-[K2]-[F1]-[F2]-[F]'-[K]'-[F]''_Design2]	295 nM
CUUAAGACAUGAGUGAUGUUCAUGUCCGAAGGAGCGUGCGAAAGCACAGGUAGGUCGCGGACGUGAGUGAUGUUCAUGUAAGCGA [KL-XArg-A11 #analogue]	125 nM
UUAGUCUAGAGAAGGAGCGAGUGAUGUUUGCUAAGAUCUAUGAUAUCAUAGAUCAAAUUUACUCAGGUAGGUCGCUCUAGACAUU [AK4 Exc Arginine B]	53.1 nM
UUGAGCCUGACGUAAGUCAGGCUCUGCGAGCGAGGACCGGUACGGCCGCCACUCGGUGCAGUGAUGUUGCAUGGCCGCAAGGCCG [#2 Exclusion - Tryptophan A Attempt #15 (HarryS)]	257 nM
AGGCACGAGCAAGGAUAUCGAGUAGAGUGAUGUUCUGCCUGGGUUGGCUCGAAAGAGCCUUCUCAGCGAGAAGGUGCUCGUGCCU [#2 Same State - FMN A Attempt #21 (HarryS)]	604 nM
GCUAUGGUAGGAAGGAGCGCUUACUCGGUAAUAAGAGUGAUGUUCGAUACCGAGUAUUUAUAGCAGGUAGGUCGCCUACUAUAGC [Arginine B K4 5]	209 nM
AUUAUAUAGGCGGCCGCCACUAGUGAUGUUAGUGACUAUAUGAAAACAUAUAGAAUAAAAUAAUAUAGGACCGGGCCAUAAUAUU [AstrosExTryB#4]	392 nM
AAGGGCUAGGCGGCCGCCACUGGUCGUGUACACAUACAAACCAGUGAUGUUGGUAUUGUAUGCGACAGGACCGGGCCUAGCCGAA [Exclusion - Tryptophan B (Freestyle 28)]	229 nM
CACUUACGUAGUGAUGUUACGAUCUCUGAUACCAGACAACUCUAAGUCCCUUGGCAGCAGUCAUUUUGCUUUUAAUUUACUCAAA [JR_ExcTheophyA_Sub014]	572 nM

Sequence	apparent KD of K4 kissing-loop reporter
UAGUUGCCGGUUUGUAGGCUUCGGCAGUGGGAGGAUAUGUUGACCGACAGAAGGCCCAGUGAUGUUGGGCGAUUGGCGGUGAGAU [Antebear]	78.3 nM
UAGUCCUAGUGAUCCUUAUCAAGUGGUGGGCGAGGACCGGUACGGCCGCCACUCGACUAUGCAGUGAUGUUGCAAUCCGGACAAU [Exclusion - Tryptophan A (Freestyle 13)]	211 nM
AGAGUUAUGCGAGGAUAUGCAGUUAGUACUCAAAGAGUACUAACGCAGAGUGAUGUUCUGUGAAAAGCAGAAGGUGCAUAACUCA [Omei KL FMN B SS B v6]	650 nM
GCGCGUCAUGUCAGCGGUGACUUUGUCGAUACCAGCGCCGCAAGGCGCCCUUGGCAGCGACGCGCUGGAGUGAUGUUCCAGCGUG [#2 Exclusion - Theophylline A Attempt #12 (HarryS)]	126 nM
CGCAGUGAUGUUGCUAUUAUUCUUGGUUAACGAGGACCGGUACGGCCGCCACUCGAUUUCUAUCUAAUCCAGUGUUUUUUUGAGU [JR_ExcTryptoA_Sub003]	377 nM
CACAAUUAAUUACAGUGAUGUUGUAAUCUGCGAGGACCGGUACGGCCGCCACUCGGGCUUGUAGGGCGCCCACAUUCUUAUACUA [theeternabot_sameState_KL_Trp_A_29]	348 nM
AGGGUUAAUUAGUCUUUUUUCACAUUAAGUCAGGAUAUCGUAUUUUCGAGAAGGGACACAUGCUAGUGAUGUUAGCUAUUUCCCA [#02 K4 FMN A Exclusion]	115 nM
GCCGUACGCAUGGAUACCAGACUACCAUUGGAAACAAUGUGUCCGGUAGUGAUGUUACCUGUCCCUUGGCAGCCAUGCGUACGGC	549 nM
CACUUACGUAGUGAUGUUACGAUCUCUGAUACCAGACAACUCUAAGUCCCUUGGCAGCAGUCAUUUUGCUUCAAAUUUACUCAAA [JR_ExcTheophyA_Sub013]	577 nM
AAUACUAUCAGAAGGAGCGUGGAAUAUUCAUCUGUAUCUAAUACGAGUGAUGUUCGUAAUUCACAGGUAGGUCGCUGAUCAAUAA [whbob_Ex_Arginine_B_2th156]	249 nM
CGCAGUGAUGUUGCGAAUAUAAUUACGGAAGGAGCGCGUGAAAACGCAGGUAGGUCGCCGUUUGGUAUGAUGGAAACAUCGUACC [Arginine A K4 10]	125 nM
UCCAAGGACGAACCGGUAUGAUCACCGGAUACCAGAGGCGAAAGCCUCCCUUGGCAGCCGAGUGUAGUGAUGUUACACUGGUUCU	82.8 nM
GGAUCCACCAGUGAUGUUGGAGAAAACUCCAAGGAUAUGACGAAAGUCAGAAGGUGGUAGACUGGGCAAAGUCCGGUCGGAUCCA [FmnA10 G66]	68.5 nM
AAGCGUAAAAUGGCGGACAUACUGCUCCCACGAGGACCGGUACGGCCGCCACUCGAAUGCGGCAGUGAUGUUGCCGCCUUCGCGU [Zauslereed]	68.3 nM
AGUGUUGUAUGACGGUUUGUCACUUAGGAUCAGGAUAUAUAAACAAAUAGAAGGGAUGGCGGAGUGAUGUUCCGCCGGCCGCCAU [FMN A Exl V9]	101 nM
GCCGUAGAUCGAAGGAGCGUGUCCAAACCUCAUUCAUGUACACACGAGUGAUGUUCGUGUACACAGGUAGGUCGCGAUCUACGGC [#04 K4 Arginine B Exclusion]	281 nM

same assay, conditions: Eterna round: R107; input ligand: none

Sequence	apparent KD of K4 kissing-loop reporter
ACCAUCAAAGAUGGCCAGGACUCAACUGAUACCAGAGUGGAAACACUCCCUUGGCAGCAGGUGAGUGAUGUUCACGAGUCCUGGA [Omel KL Theo A SS B v8]	982 nM
AAGUGAUGUUGUAGUGAUGUUGUGAUGUUGCAGGAUAUAUAGUGAUGUAGAAGGGUAUGUGCAGUUUUCUUAUUUGAGUGUUGAU [zwzamullin]	62.6 nM
GUGCGGUGGAGGUUACCGCUAUUCUGAGAAGGAGCGCAGAUGACUGCAGGUAGGUCGCUUAGAGCUUGCAGUGAUGUUGCAAGUU [Berienza]	199 nM
AAGCAGUCACUCGACGCCAUCGAAGAUGGGCGAGGACCGGUACGGCCGCCACUCGGAGUGAUGUUCUGAAGACUGCAAAAUAAAA [MatMod 7 - Jieux - Exclusion - Tryptophan A]	153 nM
CGCGCGGGUUUGAGAGGGUUUGCGCGAAGUGAGGAUAUUUAGGGAGAAAGAAGGCACUAUAAAAUAUAGUGAUGUUAUAUAAGGG [SSFMNA.I]	251 nM
AAAAUAGAUCAGUGAUGUUGGUGUCUGGAUACCAGCGAUAAUAGUCGCCCUUGGCAGCCAUGGACGUACAAAAUAAGUACGUCCU [MatMod 20 - Jieux - Same State - Theophylline A]	369 nM
CGAGUGAUGUUCGUUCGUUUAUUUCGGUGACAGGAUAUGCGGAAACGCAGAAGGGUCACCUUUGGGUUACCGGAAUUAACGUUAU [Ex FMN A 30]	561 nM
UGACUGGACUGAAGGAGCGCUUAACUCCUAGUGAUGUUAGGAUAACGAGACAAAGUCUCGAAGCAGGUAGGUCGCAGUCUAGUCU	118 nM
AAUAAUAGUUGAGCAGGCGUGGUCUGAGAUACCAGUGAUUUCGAUCACCCUUGGCAGCUCAGCAUGAGUGAUGUUCAUGCUAUUC [Theo A Ex t10]	134 nM
AAUAAAAUCACGGCCGCCACUGAUUUCCAUAUUAGGAGUGAUGUUCCUAUGACUAUAUAAUUUAACAGGACCGGGUGAAUAUUUA [JR_ExcTryptoB_Sub012]	108 nM
GGCAUCCAUGGACCUAGUGAUGUUAGGUACCGAGGACCGGUACGGCCGCCACUCGGCCAUGGAUGCCGCAAUCGGAAACGAUUGC	408 nM
GGUAGCAUGGCGGCCGCCACUUCAAGUGGAGUGAUGUUCCACGGCAUCGCGAAAGCGAUGCCUGGAAGGACCGGGCCAUGCUACC	720 nM
AUCCGGAGUGCGGCCGCCACUAUCGGAUAGAGUGAUGUUCUAUCCGGCCUUAAAGGCGCGAACGAUAGGACCGGGCACUCUAAAU [Quatinti]	136 nM
GCCGUACGCAUGGAUACCAGUCAAGAUCAGUGAUGUUGAUCUUUUAUAGAGCCUACAUUUGACCCUUGGCAGCCAUGCGUACGGC	330 nM
AACUGUCAAGGACAACAUUACUGAGGUGAUACCAGCAUCGAAAGAUGCCCUUGGCAGCGCCAACUUGCAGUGAUGUUGCAAGUAA [BrourdMod 1 - Jieux - Exclusion - Theophylline A]	157 nM
UCGCAAAAGUCGGCCGCCACUCCGGGCCCUAUAAAUGGGCGCAGUGAUGUUGCGGCUAGGCCUCUGAGGACCGGGACUUUGUAGC [Tixelequ]	58.9 nM
UGAUAGGACAGAAGGAGCGGAAGUGAUGUUUCCAAUGGAUAAAAGGUGUCAAAGACACCCUUCCAGGUAGGUCGCUGUCCUAUCU [ArgBX 17 #Palindromic #SwitchBubble #StaticStem]	148 nM
AAAUUUAAUAUAUUUAAUUAAUUAAGUGAUACCAGACAUUAAUAAGUCCCUUGGCAGCGCAAUGCAGUGAUGUUGCUUAUAAUAA [#18 K4 Theophylline A Same State]	50.1 nM
AAUAACUUGCAGUGAUGUUGCAAGAAAGCUCAGGAUAUCAGGAAACUGAGAAGGGAGCAUCCUGAGCAAACAUCACAACUUAGGA [[K1]-[K2]-[F1]-[F2]-[F]'-[K]'-[F]''_Design2]	406 nM
CUUAAGACAUGAGUGAUGUUCAUGUCCGAAGGAGCGUGCGAAAGCACAGGUAGGUCGCGGACGUGAGUGAUGUUCAUGUAAGCGA [KL-XArg-A11 #analogue]	156 nM
UUAGUCUAGAGAAGGAGCGAGUGAUGUUUGCUAAGAUCUAUGAUAUCAUAGAUCAAAUUUACUCAGGUAGGUCGCUCUAGACAUU [AK4 Exc Arginine B]	182 nM
